Reference: PMC7736355

Assays:
[1] = molecular target: VP1 protein from GI.1 Norwalk strain (GI.1 WT) (human norovirus GI.1 Norwalk strain); assay: SEC; analytical size-exclusion chromatography, Superdex 200 Increase 10/300 GL in PBS, 200 µg VLPs; fractions analysed by SDS–PAGE
[2] = molecular target: VP1 protein from GI.1 Norwalk strain (GI.1 WT) (human norovirus GI.1 Norwalk strain); assay: negative staining electron microscopy; VLP samples at ~0.1 mg/mL (0.01–0.05 mg/mL when fragments were present) in 10 mM HEPES pH 7.0, 150 mM NaCl; 0.75% uranyl formate; reference-free 2D class averages

**Q.** Which results are given for “VP1 protein from GI.1 Norwalk strain (GI.1 WT) (natural protein)”?
**A.** fraction of the sample present as VP1 dimers (rest in the void peak as non-dissociated VLPs) [1]: 20%; stoichiometry N [1]: 2; stoichiometry N [2]: 2
